These results are taken from doi:10.1101/2023.03.09.531850.

The assay has as its target EcbAgaN (Escherichia coli long-B pAgo-associated nuclease) (Escherichia coli). Kind of assay: SEC-MALS.

Regarding “EcbAgaN (Escherichia coli long-B pAgo-associated nuclease) (enzyme)”, the stoichiometry N – broadly, a count of units in the complex or per binding partner – turned out to be 2.
